The values below come from patent publication US20230346885A1 (published 2023).

Holding throughout (experiment): binding, other
In experiment [1] the target is T1, XAGE1 peptide on HLA (human).
T1 peptide: KMPEAGEEQPQV

Experiment [2] addresses T2, PIWIL1 peptide on HLA (human).
T2 peptide: SIAGFVASI

For experiment [3], the target named is T3, RLN1 peptide on HLA (human).
T3 peptide: ALSERQPSL

The target of experiment [4] is T4, SLC45A2 peptide on HLA (human).
T4 peptide: YVTPVLLSV

Experiment [5] has as its target T5, SMC1B peptide on HLA (human).
T5 peptide: ALDNTNIGKV

B1: TCR of SEQ ID NOs 611 and 612 (TCR, V domains shown)
Valpha: KQEVTQIPAALSVPEGENLVLNCSFTDSAIYNLQWFRQDPGKGLTSLLLIQSSQREQTSGRLNASLDKSSGRSTLYIAASQPGDSATYLCAVRPRGDSSYKLIFGSGTRLLVRP
Vbeta: DGGITQSPKYLFRKEGQNVTLSCEQNLNHDAMYWYRQDPGQGLRLIYYSQIVNDFQKGDIAEGYSVSREKKESFPLTVTSAQKNPTAFYLCASSASGSIYNEQFFGPGTRLTVL
Consider B1, for which, in experiment [1], the binding result is “recognises”.

B2: TCR of SEQ ID NOs 511 and 512 (TCR, V domains shown)
Valpha: KQEVTQIPVALSVPEGENLVLNCSFTDSAIYNLQWFRQDPGKGLTSLLLIQSSQREQTSGRLNASLDKSSGRSTLYIAASQPGDSATYLCAVSPYNNNDMRFGAGTRLTVKP
Vbeta: NAGVTQTPKFQVLKTGQSMTLLCAQDMNHEYMYWYRQDPGMGLRLIHYSVGEGTTDKGEVPNGYNVSRSTTEDFPLRLLSAAPSQTSVYFCASSFTGDSPLHFGNGTRLTVT
Take B2: the binding result in experiment [2] is listed as “recognises”.

B3: TCR of SEQ ID NOs 525 and 526 (TCR, V domains shown)
Valpha: QKEVEQNSGPLSVPEGAIASLNCTYSDRGSQSFFWYRQYSGKSPELIMFIYSNGDKEDGRFTAQLNKASQYVSLLIRDSQPSDSATYLCAVGGYQKVTFGTGTKLQVIP
Vbeta: NAGVTQTPKFGILKIGQSMTLQCAQDMNHNYMYWYRQDPGMGLKLIYYSVGAGITDKGEVPNGYNVSRSTTEDFPLRLELAAPSQTSVYFCASRVDSYNEQFFGPGTRLTVL
For the molecule B3, in experiment [3], the binding result is recorded as “recognises”.

B4: TCR of SEQ ID NOs 575 and 576 (TCR, V domains shown)
Valpha: KQEVTQIPAALSVPEGENLVLNCSFTDSAIYNLQWFRQDPGKGLTSLLLIQSSQREQTSGRLNASLDKSSGRSTLYIAASQPGDSATYLCAALSYNTDKLIFGTGTRLQVFP
Vbeta: NAGVTQTPKFQVLKTGQSMTLQCAQDMNHNSMYWYRQDPGMGLRLIYYSASEGTTDKGEVPNGYNVSRLNKREFSLRLESAAPSQTSVYFCASSEAYLAAFFGQGTRLTVV
As to B4, the binding result in experiment [4] is “recognises”.

B5: TCR of SEQ ID NOs 523 and 524 (TCR, V domains shown)
Valpha: QKEVEQNSGPLSVPEGAIASLNCTYSDRGSQSFFWYRQYSGKSPELIMSIYSNGDKEDGRFTAQLNKASQYVSLLIRDSQPSDSATYLCAVNAGGTSYGKLTFGQGTILTVHP
Vbeta: NAGVTQTPKFRVLKTGQSMTLQCAQDMNHNSMYWYRQDPGMGLRLIYYSASEGTTDKGEVPNGYNVSRLNKREFSLRLESAAPSQTSVYFCASSEIDVWYNSPLHFGNGTRLTVT
B5: the binding result in experiment [3] was “recognises”.

B6: TCR of SEQ ID NOs 513 and 514 (TCR, V domains shown)
Valpha: KQEVTQIPAALSVPEGENLVLNCSFTDSAIYNLQWFRQDPGKGLTSLLLIQSSQREQTSGRLNASLDKSSGRSTLYIAASQPGDSATYLCAVGGYNKLIFGAGTRLAVHP
Vbeta: NAGVTQTPKFRVLKTGQSMTLLCAQDMNHEYMYWYRQDPGMGLRLIHYSVGAGITDQGEVPNGYNVSRSTTEDFPLRLLSAAPSQTSVYFCASRATGLTEAFFGQGTRLTVV
As for B6, in experiment [2], the binding result is listed as “recognises”.

B7: TCR of SEQ ID NOs 581 and 582 (TCR, V domains shown)
Valpha: KQEVTQIPAALSVPEGENLVLNCSFTDSAIYNLQWFRQDPGKGLTSLLLIQSSQREQTSGRLNASLDKSSGRSTLYIAASQPGDSATYLCAVFNDYKLSFGAGTTVTVRA
Vbeta: NAGVTQTPKFQVLKTGQSMTLQCAQDMNHEYMSWYRQDPGMGLRLIHYSVGAGITDQGEVPNGYNVSRLNKREFSLRLESAAPSQTSVYFCASSEWFDTEAFFGQGTRLTVV
Turning to B7, in experiment [5], the binding result was “recognises”.

B8: TCR of SEQ ID NOs 585 and 586 (TCR, V domains shown)
Valpha: KQEVTQIPAALSVPEGENLVLNCSFTDSAIYNLQWFRQDPGKGLTSLLLIQSSQREQTSGRLNASLDKSSGRSTLYIAASQPGDSATYLCAVRGAGGTSYGKLTFGQGTILTVHP
Vbeta: NAGVTQTPKFQVLKTGQSMTLQCAQDMNHNSMYWYRQDPGMGLRLIYYSASEGTTDKGEVPNGYNVSRLNKREFSLRLESAAPSQTSVYFCASSDESYGYYGYTFGSGTRLTVV
Consider B8, for which, in experiment [5], the binding result is “recognises”.
